# Measurements as given in the supplement of paper PMC10567573.
# B1: KCNA4 (parent)
# chain: YQLGEEALLKFREDEGFVREEEDR
# B2: CASP6 (parent)
# chain: TCADRDNLTRRFSDLGFEVKCFND
# Variants of: B1
# Assay: protein stability index of a GFP-peptide fusion (GPS, HEK-293T) (PSI 1-6); higher = more stable
# Settings: c terminus: a fixed tail appended
# 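Further: lentivirally expressed fusions sorted by FACS into six bins by GFP to DsRed ratio, PSI derived from sequencing read proportions per bin multiplied by bin number.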
row,Variant,protein stability index
1,YQLGEEALLKFREDEGFVREEEDS [R24S],4.65
2,YQLGEEALLKFREDEGFVREEEDL [R24L],4.54
3,YQLGEEALLKFREDEGFVREEEDN [R24N],4.72
4,YQLGEEALLKFREDEGFVREEEDP [R24P],5.16
5,YQLGEEALLKFREDEGFVREEEDY [R24Y],4.42
6,YQLGEEALLKFREDEGFVREEEDK [R24K],4.66
7,YQLGEEALLKFREDEGFVREEEDM [R24M],4.88
8,YQLGEEALLKFREDEGFVREEEDH [R24H],4.83
9,YQLGEEALLKFREDEGFVREEEDQ [R24Q],4.71
10,YQLGEEALLKFREDEGFVREEEDV [R24V],4.73
11,YQLGEEALLKFREDEGFVREEEDI [R24I],4.6
12,YQLGEEALLKFREDEGFVREEEDW [R24W],4.53
13,YQLGEEALLKFREDEGFVREEEDG [R24G],4.79
14,YQLGEEALLKFREDEGFVREEEDT [R24T],4.71

# Variants of: B2
# Assay: as above
# Settings: c terminus: a fixed tail appended
row,Variant,protein stability index
1,TCADRDNLWRRFSDLGFEVKCFND [T9W],2.34
2,TCADRDNLSRRFSDLGFEVKCFND [T9S],3.25
3,TCADRDNLFRRFSDLGFEVKCFND [T9F],1.94
4,TCADRDNLLRRFSDLGFEVKCFND [T9L],3.12
5,TCADRDNLCRRFSDLGFEVKCFND [T9C],2.87
6,TCADRDNLRRRFSDLGFEVKCFND [T9R],3.36
7,TCADRDNLPRRFSDLGFEVKCFND [T9P],3.62
8,TCADRDNLIRRFSDLGFEVKCFND [T9I],2.69
9,TCADRDNLDRRFSDLGFEVKCFND [T9D],3.51
10,TCADRDNLGRRFSDLGFEVKCFND [T9G],3.47
11,TCADRDNLNRRFSDLGFEVKCFND [T9N],2.83
12,TCADRDNLQRRFSDLGFEVKCFND [T9Q],3.49
13,TCADRDNLHRRFSDLGFEVKCFND [T9H],3.03
14,TCADRDNLYRRFSDLGFEVKCFND [T9Y],2.41
15,TCADRDNLKRRFSDLGFEVKCFND [T9K],3.12
16,TCADRDNLERRFSDLGFEVKCFND [T9E],3.75
17,TCADRDNLMRRFSDLGFEVKCFND [T9M],2.54
18,TCADRDNLVRRFSDLGFEVKCFND [T9V],3.58
19,TCADRDNLARRFSDLGFEVKCFND [T9A],3.3
20,TCADYDNLTRRFSDLGFEVKCFND [R5Y],2.92
21,TCADHDNLTRRFSDLGFEVKCFND [R5H],2.86
22,TCADPDNLTRRFSDLGFEVKCFND [R5P],3.98
23,TCADVDNLTRRFSDLGFEVKCFND [R5V],3.5
24,TCADWDNLTRRFSDLGFEVKCFND [R5W],2.62
25,TCADNDNLTRRFSDLGFEVKCFND [R5N],3.33
26,TCADGDNLTRRFSDLGFEVKCFND [R5G],3.64
27,TCADEDNLTRRFSDLGFEVKCFND [R5E],3.58

row,Variant,protein stability index
1,TCADDDNLTRRFSDLGFEVKCFND [R5D],4.21
2,TCADSDNLTRRFSDLGFEVKCFND [R5S],3.8
3,TCADQDNLTRRFSDLGFEVKCFND [R5Q],3.44
4,TCADADNLTRRFSDLGFEVKCFND [R5A],4.37
5,TCADFDNLTRRFSDLGFEVKCFND [R5F],2.43
6,TCADTDNLTRRFSDLGFEVKCFND [R5T],3.48
7,TCADMDNLTRRFSDLGFEVKCFND [R5M],3.6
8,TCADCDNLTRRFSDLGFEVKCFND [R5C],2.65
9,TCADIDNLTRRFSDLGFEVKCFND [R5I],2.71
10,TCADKDNLTRRFSDLGFEVKCFND [R5K],3.77
11,TCADLDNLTRRFSDLGFEVKCFND [R5L],3.5
12,TCVDRDNLTRRFSDLGFEVKCFND [A3V],3.52
13,TCMDRDNLTRRFSDLGFEVKCFND [A3M],3.45
14,TCHDRDNLTRRFSDLGFEVKCFND [A3H],2.98
15,TCTDRDNLTRRFSDLGFEVKCFND [A3T],3.63
16,TCRDRDNLTRRFSDLGFEVKCFND [A3R],2.97
17,TCQDRDNLTRRFSDLGFEVKCFND [A3Q],4.01
18,TCIDRDNLTRRFSDLGFEVKCFND [A3I],3.21
19,TCDDRDNLTRRFSDLGFEVKCFND [A3D],3.96
20,TCCDRDNLTRRFSDLGFEVKCFND [A3C],2.84
21,TCWDRDNLTRRFSDLGFEVKCFND [A3W],3.21
22,TCSDRDNLTRRFSDLGFEVKCFND [A3S],3.64
23,TCGDRDNLTRRFSDLGFEVKCFND [A3G],3.38
24,TCKDRDNLTRRFSDLGFEVKCFND [A3K],3.7
25,TCYDRDNLTRRFSDLGFEVKCFND [A3Y],2.9
26,TCEDRDNLTRRFSDLGFEVKCFND [A3E],3.65
27,TCLDRDNLTRRFSDLGFEVKCFND [A3L],3.14

row,Variant,protein stability index
1,TCFDRDNLTRRFSDLGFEVKCFND [A3F],2.52
2,TCNDRDNLTRRFSDLGFEVKCFND [A3N],3.38
3,TCPDRDNLTRRFSDLGFEVKCFND [A3P],4.03
4,TCADRDNLTARFSDLGFEVKCFND [R10A],3.59
5,TCADRDNLTDRFSDLGFEVKCFND [R10D],3.96
6,TCADRDNLTCRFSDLGFEVKCFND [R10C],2.59
7,FCADRDNLTRRFSDLGFEVKCFND [T1F],2.18
8,RCADRDNLTRRFSDLGFEVKCFND [T1R],3.06
9,LCADRDNLTRRFSDLGFEVKCFND [T1L],3.1
10,ICADRDNLTRRFSDLGFEVKCFND [T1I],2.73
11,YCADRDNLTRRFSDLGFEVKCFND [T1Y],2.15
12,ECADRDNLTRRFSDLGFEVKCFND [T1E],3.74
13,PCADRDNLTRRFSDLGFEVKCFND [T1P],3.67
14,QCADRDNLTRRFSDLGFEVKCFND [T1Q],4.05
15,GCADRDNLTRRFSDLGFEVKCFND [T1G],3.2
16,MCADRDNLTRRFSDLGFEVKCFND [T1M],3.58
17,WCADRDNLTRRFSDLGFEVKCFND [T1W],2.32
18,NCADRDNLTRRFSDLGFEVKCFND [T1N],3.03
19,SCADRDNLTRRFSDLGFEVKCFND [T1S],3.28
20,ACADRDNLTRRFSDLGFEVKCFND [T1A],3.73
21,HCADRDNLTRRFSDLGFEVKCFND [T1H],3.37
22,VCADRDNLTRRFSDLGFEVKCFND [T1V],2.92
23,DCADRDNLTRRFSDLGFEVKCFND [T1D],4.37
24,KCADRDNLTRRFSDLGFEVKCFND [T1K],3.07
25,CCADRDNLTRRFSDLGFEVKCFND [T1C],2.88
26,TCADRDVLTRRFSDLGFEVKCFND [N7V],3.04
